Reference: US20220228157A1, “GENE EDITING IN DIVERSE BACTERIA” (priority 2019, published 2022)

Experiments:
E. coli MG1655 = assay: DIvERGE mutagenesis of gyrA, gyrB, parC, parE with ciprofloxacin selection; format: cell-based, Escherichia coli; conditions: one round of DIvERGE
[1] = tested on: Citrobacter freundii ATCC 8090; assay: Recombineering efficiency by LacZ screening; format: cell-based; conditions: pORTMAGE-based constructs
Description: (§1) To test the activity of PapRecT and CspRecT in these three organisms, the broad-host-range pORTMAGE system (Nyerges et al., Proc. Natl. Acad. Sci. U.S.A. 113, 2502-2507 (2016)) was built on as described above. For experiments in E. coli PapRecT or CspRecT was subcloned in place of Redβ into pORTMAGE311B (Szili et al., Antimicrob. Agents Chemother. AAC.00207-19 (2019) doi:10.1128/AAC.00207-19) (FIGS. 10A-10B; Addgene accession: #120418), which transiently disrupts MMR with EcMutL_E32K, and whose RSF1010 origin of replication and m-toluic-acid-based expression system allows the plasmid to be deployed over a broad range of bacterial hosts (Honda et al., Proc. Natl. Acad. Sci. U.S.A. 88, 179-183 (1991); Gawin et al., Microb. Biotechnol. 10, 702 (2017)). These same pORTMAGE-based constructs were used for testing in C. freundii and K. pneumoniae. […]
(§2) Oligos were designed to introduce I) premature STOP codons into lacZ for E. coli, K. pneumoniae, and C. freundii, or II) RpsL K43→R; GyrA T83→I; ParC S83→L; RpoB D521→V, or a premature STOP codon into nfxB for P. aeruginosa. […] After recovery overnight, cells were plated at empirically-determined dilutions to a density of 200-500 colonies per plate. […] In all cases, allelic-replacement frequencies were calculated by dividing the number of recombinant CFUs by the number of total CFUs. […]

[2] = tested on: Klebsiella pneumoniae ATCC 10031; assay: Recombineering efficiency by LacZ screening; format: cell-based; conditions: pORTMAGE-based constructs
Description: as §1, §2

M. smegmatis = assay: Allelic recombination frequency, selective vs non-selective plates; format: cell-based, Mycobacterium smegmatis
Protocol: A single colony of M. smegmatis was grown overnight to saturation. The next day 25 μL of dense culture was inoculated into 5 mL of fresh media in the evening and grown overnight to an OD600 of 0.9. Cells were pelleted at 4° C. by centrifugation at 3,500×g for 10 minutes and washed twice with 10 mL ice-cold 10% glycerol. Cells were resuspended in 360 μL ice-cold 10% glycerol and transferred along with 10 μL of DNA to a pre-chilled 0.2 cm electroporation cuvette.
Electrocompetent cells were electroporated with 90-mer oligos at: 1 uM for E. coli, 50 μg for L. lactis, and 10 uM for C. crescentus. 70-mer oligos were used at 1 μg for M. smegmatis. All oligos were obtained from IDT and can be found under “Oligonucleotides for genome editing” in materials and methods. For dsDNA experiments L. lactis was electroporated with 1.5 μg purified linear dsDNA. Cells were electroporated using a Bio-Rad gene pulser set to 25 μF, 200 S2, and 1.8 kV for E. coli, 2.0 kV for L. lactis, and 1.5 kV for C. crescentus and to 1000Ω and 2.5 kV for M. smegmatis. […] Colonies were counted using a custom script in Fiji, and allelic recombination frequency was calculated by dividing the number of colonies on selective plates, with the number of colonies on non-selective plates.

Row | Molecule | Colonies relative to Redβ and PapRecT (E. coli MG1655; 250 ng/mL CIP, 130 oligos) | Resistant variants produced (E. coli MG1655; 1,000 ng/mL CIP) | Editing performance in C. freundii [1] | Editing performance in K. pneumoniae [2] | Editing efficiency (M. smegmatis)
1 | CspRecT: RecT SSAP (UniParc ID: UPI0001837D7F) from a phage of Collinsella stercoris (protein, Collinsella stercoris DSM 13279) MNQIVKFTDDSGLAVQVTPDDVRRYICENATEKEVGLFLQLCQTQRLNPFVKDAYLVKYGGAPASMITSYQVFNRRACRDANYDGIKSGVVVLRDGDVVHKRGAACYKKAGEELIGGWAEVRFKDGRETAYAEVALDDYSTGKSNWAKMPGVMIEKCAKAAAWRLAFPDTFQGMYAAEEMDQAQQPEQVRAQAEQPVDLQPIRELFKPYCEHFGITPAEGMTAVCGAVGAEGMHSMTEQQARRARAWMEEEMAAPAVEAEYEVVDEGEVF | more than ten times as many colonies | only the use of CspRecT produced resistant variants | optimal choice of protein | optimal choice of protein | –
2 | PapRecT: SSAP from Pseudomonas aeruginosa, SEQ ID NO: 24, UniParc ID: UPI0001E9E6CB (protein, listed as Pseudomonas aeruginosa) MGTALTPLLTKFATRYEMGTTPEEVANTLKQTCFKGQVNDSQMVALLIVADQYKLNPFTKELYAFPDKNNGIVPVVGVDGWARIINENPQFDGMEFSMDQQGTECTCKIYRKDRSHAISATEYMAECKRNTQPWQSHPRRMLRHKAMIQCARLAFGFAGIYDQDEAERIVERDVTPAEQYEDVSEAICLIKDSPTMEDLQAAFSNAWKAYKTKGARDQLTAAKDQRKKELLDAPIDVEFEETGDDRAA | – | – | – | – | enabled high efficiency editing
